Source: article PMC11996674, “Mechanism of mammalian transcriptional repression by noncoding RNA”

Target: RNA polymerase II (12-subunit) (Sus scrofa (thymus), UniProt A0A8D1DPV6;A0A0B8RVL1;P19387;O15514;P19388;P61218;P62487;P52434;P60899;P62875;A0 …)
Assay: cryo-EM; alternative conformation, EMD-18376; FA: 5 mM HEPES-NaOH pH 7.25, 150 mM NaCl, 10 uM ZnCl2, 1 mM MgCl2, 1 mM DTT, 4 nM RNA, 30 C; EMSA: 20 mM HEPES-NaOH pH 7.25, 150 mM NaCl, 1 mM MgCl2, 5% glycerol, 40 ug/ml BSA, 1 mM DTT, 5 nM RNA, 30 C (gel 4 C)
Details: protein: native; copies: 1;1;1;1;1;1;1;1;1;1;1;1; folded; canonical and alternative conformations

B1: minimal Alu-RA (structured_RNA)
RNA: GAGGCAGGAGAAUGGCGUGAACCCGGGAGGUGGACGAGAUCGCUCCAGCCUGGGUGACAGAGCGAGACUCUGUCUC
B1: binds.
